Data: patent US20240122985A1, “ANTIBODIES, COMBINATIONS COMPRISING ANTIBODIES, BIOMARKERS, USES & METHODS” (KYMAB LIMITED, priority 2016, published 2024)
Several values for one entry are separate records, joined by “and”; a condition that tells them apart may be missing. Identical values can stand only once.

How the values were obtained:
[1] = KY1005 pharmacokinetic (PK) analysis (OX40L capture ECL, MSD); type: in vivo, Rhesus macaque; settings: mono-prophylaxis, 10 mg/kg once weekly (FIG. 16A)
Description: For PK analysis, serum samples were collected 30 minutes before and 30 minutes after each infusion of KY1005 and then once weekly after the last dose was given. The KY1005 concentration was measured using an antigen (OX40L) capture electrochemiluminescence (ECL) assay on the MSD platform. In this assay, an MSD streptavidin 96-well plate is first coated with biotinylated-OX40L, followed by the addition of test samples, followed by the detection of bound KY1005 by a ruthenylated anti-human IgG (pre-adsorbed against monkey serum for added specificity).

recombinant hOX40L = biological target: T1, recombinant hOX40L (Homo sapiens, UniProt P23510); test: Surface plasmon resonance, apparent affinity to human OX40L; type: binding; settings: SPR, 25° C.; CNROR = Cannot resolve off-rate
T1 construct: cDNA encoding the extracellular domain of human OX40L was cloned into a pREP4 expression plasmid; isoleucine zipper (N); made in house; host or cells: FreeStyle CHO-S (transient)
T1 sequence (P23510 with tags, fused parts or gaps): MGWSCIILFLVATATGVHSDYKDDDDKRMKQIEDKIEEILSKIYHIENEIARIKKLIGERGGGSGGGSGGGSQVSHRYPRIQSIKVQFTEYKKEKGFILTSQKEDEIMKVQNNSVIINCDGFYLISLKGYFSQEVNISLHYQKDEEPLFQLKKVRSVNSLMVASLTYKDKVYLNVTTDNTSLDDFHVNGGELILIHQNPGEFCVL
Description: SPR analysis was carried out using the ProteOn™ XPR36 Array System (BioRad). Anti-mouse IgG (GE Healthcare BR-1008-38) was immobilised on a GLM biosensor surface using amine coupling, the surface was then blocked using 1 M ethanolamine. Test antibodies were captured on this surface and recombinant hOX40L (human and rhesus) were used at a single concentration of 256 nM, binding sensorgrams were double referenced using a buffer injection (i.e. 0 nM) to remove baseline drift and injection artefacts. Apparent affinities for the OX40L-antibody interaction were determined using the 1:1 model inherent to the ProteOn XPR36 analysis software. The assay was run using HBS-EP (Teknova) as running buffer and carried out at 25° C.

[2] = system: peripheral blood or T-cell donor chimerism; test: Donor chimerism in rhesus HSCT recipients (microsatellite markers); type: in vivo, Rhesus macaque; settings: per animal
Description: Peripheral blood or T-cell (CD3^+/CD20−) chimerism was determined using divergent donor- and recipient-specific MHC-linked microsatellite markers, by comparing peak heights of the donor- and recipient-specific amplicons (Penedo M C et al, (2005) “Microsateliite typing of the rhesus macaque MHC region”, Imunogenetics 57:198-209).
Flow cytometrically-sorted T-cells (CD3^+/CD20−) were analysed for donor chimerism based on divergent microsatellite markers. Chimerism analysis was performed at the UC Davis veterinary genetics laboratory as previously described (Larsen et al., 2010; Kean et al., 2007).

Molecule | KY1005 trough [1] | Apparent Affinity hOX40L (nM) (recombinant hOX40L) | Peak peripheral blood donor chimerism ([2]; 2D10 IgG4PE Rhesus GvHD Study) | Whole Blood Chimerism (%) Day 0 ([2]; Day 0) | Whole Blood Chimerism (%) Day 1 ([2]; Day 1) | Whole Blood Chimerism (%) Day 4 ([2]; Day 4) | Whole Blood Chimerism (%) Day 5 ([2]; Day 5) | Whole Blood Chimerism (%) Day 7 ([2]; Day 7) | Whole Blood Chimerism (%) Day 8 ([2]; Day 8) | Whole Blood Chimerism (%) Day 11 ([2]; Day 11) | Whole Blood Chimerism (%) Day 12 ([2]; Day 12) | Whole Blood Chimerism (%) Day 14 ([2]; Day 14) | Whole Blood Chimerism (%) Day 15 ([2]; Day 15) | Whole Blood Chimerism (%) Day 16 ([2]; Day 16) | Whole Blood Chimerism (%) Day 18 ([2]; Day 18) | Whole Blood Chimerism (%) Day 20 ([2]; Day 20) | Whole Blood Chimerism (%) Day 21 ([2]; Day 21) | Whole Blood Chimerism (%) Day 23 ([2]; Day 23) | Whole Blood Chimerism (%) Day 26 ([2]; Day 26)
KY1005: antibody used for GVHD immunoprophylaxis in NHP, measured by antigen (OX40L) capture assay; not tied to 02D10 in this part | 107.9 ± 11.7 mg/L |  |  |  |  |  |  |  |  |  |  |  |  |  |  |  |  |  | 
2D10 IgG4PE: fully human anti-human OX40L monoclonal antibody, human IgG4-PE; VH Seq ID No:34, VL Seq ID No:48; 2D10-1 to -4 are stable pools (antibody, V domains shown, human IgG4-PE constant regions; 02D10 - VH Amino Acid Sequence; 02D10 - VL Amino Acid Sequence) VH: EVQLVESGGGLVQPGGSLRLSCAASGFTFSNYAMNWVRQAPGKGLEWVSTISGSGGATRYADSVKGRFTISRDNSRNTVYLQMNSLRVEDTAVFYCTKDRLIMATVRGPYYYGMDVWGQGTTVTVSS VL: DIQMTQSPSSLSASVGDRVTITCRASQSISSYLNWYQQKPGKAPNLLIYAASSLQSGVPSRFSGSGSETDFTLTISSLQPEDFATYYCQQSHSVSFTFGPGTKVDIK |  | CNROR | 88% and 99% (2×) and 100% | 0% | 16.6% and 5.7% and 22.9% | 6.6% | 91.4% and 66.3% and 31.7% and 68.2% | 27.5% | 98.4% and 97.4% and 66.3% and 82.9% | 90.4% | 98.6% and 99.5% and 82.3% and 92.1% | 81.8% | 99.1% and 99.4% and 88.2% and 97.5% | 79.8% | 19.7% | 99.2% and 98.4% | 0% | 98.6% and 98.8% | 98.7%
